{"source": "patent US20180135060A1", "about": "(OURO FINO SAUDE ANIMAL LTDA, published 2018)", "binders": {"B1": {"name": "Rrp41 protein of the Pyrococcus abyssi exosome, as encoded by pMRKA-EXO (R89T, K91S) (other)", "chain": "MATRAEKPEGLKLIDENGRRIDGRKKYELRPIKMEVGVLKNANGSAYIEWGKNKIIAAVYGPRELHPKHLQRPDRAILRVRYNMAPFSVEETKSPGPDRRSIEISKVIKGALEPALILEMFPRTAIDVFIEVLQADAGTRVAGITAASLALADAGIPMRDLVAACAAGKIEGEIVLDLNKEEDNYGEADVPVAIMPLKNDITLLQMDGYLTKDEFIEAVKLAIKGAKAVYQKQREALKEKYLKIAQEVEGS", "notes": "also called PAB0420"}}, "molecular_target": "T1, Rrp4 protein of the Pyrococcus abyssi exosome, as encoded by pMRKA-EXO (Pyrococcus abyssi, UniProt Q9V120 2-263)", "T1 construct": "Co-expressed in E. coli; also called PAB0419", "T1 sequence": "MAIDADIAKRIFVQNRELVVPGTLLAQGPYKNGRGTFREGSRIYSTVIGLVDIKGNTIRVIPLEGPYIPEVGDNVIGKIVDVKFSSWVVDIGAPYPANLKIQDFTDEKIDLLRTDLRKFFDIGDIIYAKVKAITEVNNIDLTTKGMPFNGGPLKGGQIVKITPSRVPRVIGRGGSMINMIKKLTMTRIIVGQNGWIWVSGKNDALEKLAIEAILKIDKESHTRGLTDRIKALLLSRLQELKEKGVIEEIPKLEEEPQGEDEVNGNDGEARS", "test": "co-expression in E. coli and co-purification, gel (FIG. 11)", "data": [{"binder": "B1", "values": [{"measurement": "binding result", "value": "binds"}]}]}
